Source: patent publication US20190382503A1 (published 2019)

Legend:
human 5T4 on cells [1] = target: T1, human 5T4 on cells (human, UniProt Q13641 32-420); test: flow cytometry, CHO-hu5T4 cells, streptavidin-PE, normalized MFI of 2 pooled experiments
T1 construct: Human 5T4 on transfected cells (CHO-K1, CT26, B16) or endogenous on human tumour lines; the cell line is named under assay; also called trophoblast glycoprotein; TPBG
T1 sequence: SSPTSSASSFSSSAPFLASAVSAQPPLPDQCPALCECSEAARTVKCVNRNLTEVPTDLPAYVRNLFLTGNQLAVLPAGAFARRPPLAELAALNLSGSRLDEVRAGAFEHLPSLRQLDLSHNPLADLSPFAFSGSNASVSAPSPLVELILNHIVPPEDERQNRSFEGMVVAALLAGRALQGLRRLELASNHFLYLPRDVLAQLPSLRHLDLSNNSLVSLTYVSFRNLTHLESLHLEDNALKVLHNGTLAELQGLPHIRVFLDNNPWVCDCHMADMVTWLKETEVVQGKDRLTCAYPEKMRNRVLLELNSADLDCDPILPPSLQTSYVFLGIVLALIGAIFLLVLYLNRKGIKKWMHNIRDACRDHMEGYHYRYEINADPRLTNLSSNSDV
Procedure: (§1) Biotinylation: In order to detect ALG.APV-210 binding to 5T4-expressing cell lines, ALG.APV-210 was first biotinylated. The quality of the biotinylated protein and the impact on binding to its targets was assessed using ELISA.
(§2) FACS staining and analysis of 5T4-expressing cell lines: Prior to the FACS staining, all cell lines were characterized for their 5T4 expression levels using a receptor density kit (Quantum Simply Cellular, anti-human IgG, Bangs Laboratories, Inc). Adherent cell lines were cultured according to their supplier's instructions and were harvested from their cell culture flasks using Trypsin/EDTA, counted in R10 medium in a Burker chamber, and diluted in FACS buffer (PBS+0.5% BSA, 0.05% NaN₃) to a concentration of 4×10⁶ cells/mL. 50 μL (0.20×10⁶) of cell solution was added to a 96-well FACS staining plate (Falcon #351190). Cells were incubated for 20 min in 4° C. with 50 μL of the biotinylated ALG.APV-210 (2× final concentration). […] Cells were analysed for ALG.APV-210 binding using flow cytometry (FACSVerse) by gating on single cells. MFI values (secondary antibody only subtracted) from 1 out of 2 independent experiments, as well as normalized data and EC₅₀-values of pooled data from 2 experiments were determined and plotted using GraphPad Prism 7, non-linear regression log (agonist) vs. normalized response-variable slope.

human CD137 on cells [2] = target: T2, human CD137 on cells (human, UniProt Q07011 24-255); test: flow cytometry, CD3-stimulated primary human CD8 T cells (summary of the study)
T2 construct: Human CD137 on CHO-K1 transfectants, Jurkat/CD137 reporter cells or CD3-stimulated primary human CD8 T cells; cells named under assay; also called 4-1BB; TNFRSF9
Procedure: (§3) FACS staining and analysis of CD8 T cells: Following 48 h of incubation with or without CD3, human and cynomolgus PBMC were harvested, pooled, recounted and diluted in FACS buffer (PBS+0.5% BSA, 0.05% NaN₃) to a concentration of 5×10⁶ cells/mL. 50 μL (0.25×10⁶ cells) of cell solution was added to a 96-well FACS staining plate (Falcon #351190). Following 10 min of Fc-blocking in RT using Beriglobin (hIgG, 200 μg/mL), cells were washed in FACS buffer and then incubated for 1 h in 4° C. with 100 μL of the biotinylated ALG.APV-210 or negative control. The antibodies were added in a serial dilution starting either at 5 μg/mL titrating down in a 12 step 1/3 dilution down to 0.0003 μg/mL (exp 1) or 1 μg/mL titrating down in a 12 step 1/2 dilution down to 0.0005 μg/mL (exp 2). […] Cells were analysed for ALG.APV-210 binding using flow cytometry by gating on viable, single cells expressing CD3 and CD8. MFI values (FMO subtracted) from 2 independent experiments as well as normalized pooled data from 2 experiments and EC₅₀-values were determined and plotted using GraphPad Prism 7, non-linear regression log (agonist) vs. normalized response-variable slope, n=6 donors/group.

human 5T4 on cells [3] = target: T1, human 5T4 on cells; test: flow cytometry, HT-29 cells, streptavidin-PE, normalized MFI of 2 pooled experiments
Procedure: as §2, with “concentration). The antibodies were added in a serial dilution starting at 20 μg/mL titrating down in a 12 step 1/2 dilution down to 0.010 μg/mL.” for “concentration).”

[4] = target: T3, cynomolgus CD137 on cells (cynomolgus macaque, UniProt A9YYE7 24-254); test: flow cytometry, MFI of the CD137 positive CD8 T cells
T3 construct: whole, on cells; also called CHO-K1/cynomolgus CD137; cynomolgus monkey CD137
Procedure: as §3, with “control.” for “control. The antibodies were added in a serial dilution starting either at 5 μg/mL titrating down in a 12 step 1/3 dilution down to 0.0003 μg/mL (exp 1) or 1 μg/mL titrating down in a 12 step 1/2 dilution down to 0.0005 μg/mL (exp 2).”
(§4) ALG.APV-210 binding was also assessed by looking at the percentage of CD8 T cells bound by ALG.APV-210. […] The binding EC₅₀ values were also calculated on the MFI of the CD137 positive cells, and the results was an EC₅₀ of 0.17 nM for binding to human CD137 and 0.20 nM for cynomolgus monkey CD137.

human CD137 on cells [5] = target: T2, human CD137 on cells; test: as above
Procedure: as §3, with “control.” for “control. The antibodies were added in a serial dilution starting either at 5 μg/mL titrating down in a 12 step 1/3 dilution down to 0.0003 μg/mL (exp 1) or 1 μg/mL titrating down in a 12 step 1/2 dilution down to 0.0005 μg/mL (exp 2).”
as §4

human 5T4 on cells [6] = target: T1, human 5T4 on cells; test: flow cytometry, CT26-hu5T4^int cells, streptavidin-PE, normalized MFI of 2 pooled experiments
Procedure: as §1, §2

human 5T4 on cells [7] = target: T1, human 5T4 on cells; test: flow cytometry, CT26-hu5T4^low cells, streptavidin-PE, normalized MFI of 2 pooled experiments
Procedure: as §2, with “concentration). The antibodies were added in a serial dilution starting at 20 μg/mL titrating down in a 12 step 1/2 dilution down to 0.010 μg/mL.” for “concentration).”

T2 sequence (Q07011 24-255 limits assumed): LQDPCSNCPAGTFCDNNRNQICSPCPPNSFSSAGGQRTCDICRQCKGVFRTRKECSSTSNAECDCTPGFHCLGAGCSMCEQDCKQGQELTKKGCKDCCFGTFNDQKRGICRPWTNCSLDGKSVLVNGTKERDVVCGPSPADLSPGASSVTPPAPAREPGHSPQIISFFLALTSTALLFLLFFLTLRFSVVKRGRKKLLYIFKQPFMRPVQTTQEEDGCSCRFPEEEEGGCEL
T3 sequence (A9YYE7 entry or part of it): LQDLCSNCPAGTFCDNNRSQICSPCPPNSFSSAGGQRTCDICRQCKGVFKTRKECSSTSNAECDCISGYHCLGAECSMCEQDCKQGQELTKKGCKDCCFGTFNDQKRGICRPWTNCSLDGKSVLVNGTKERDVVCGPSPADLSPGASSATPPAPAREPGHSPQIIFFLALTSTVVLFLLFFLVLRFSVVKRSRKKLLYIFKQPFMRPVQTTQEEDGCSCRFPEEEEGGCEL

B1: biotinylated ALG.APV-210 (bispecific antibody)
chain: EVQLLESGGGLVQPGGSLRLSCAASGFTFSHGSMYWVRQAPGKGLEWVSSISSGSGSTYYADSVKGRFTISHDNSKNTLYLQMNSLRAEDTAVYYCARSSYYGSYYSIDYWGQGTLVTVSSGGGGSGGGGSGGGGSGGGGSDIQMTQSPSSLSASVGDRVTITCRASQSISSYLNWYQQKPGKAPKLLIYAASSLQSGVPSRFSGSGSGTDFTLTISSLQPEDFATYYCQQYYDNLPTFGQGTKLEIKEPKSSDKTHTCPPCPAPEAAGAPSVFLFPPKPKDTLMISRTPEVTCVVVDVSHEDPEVKFNWYVDGVEVHNAKTKPREEQYNSTYRVVSVLTVLHQDWLNGKEYKCAVSNKALPAPIEKTISKAKGQPREPQVYTLPPSRDELTKNQVSLTCLVKGFYPSDIAVEWESNGQPENNYKTTPPVLDSDGSFFLYSKLTVDKSRWQQGNVFSCSVMHEALHNHYTQKSLSLSPGSGGGGSGGGGSGGGGSPSEVQLLESGGGLVQPGGSLRLSCAASGFTFSSYAMSWVRQAPGKCLEWVSAISGSGGSTYYADSVKGRFTISRDNSKNTLYLQMNSLRAEDTAVYYCARYYGGYYSAWMDYWGQGTLVTVSSGGGGSGGGGSGGGGSGGGGSDIQMTQSPSSLSASVGDRVTITCRASQSISSFLNWYQQKPGKAPKLLIYAASSLQSGVPSRFSGSGSGTDFTLTISSLQPEDSATYYCQQTYGYLHTFGCGTKLEIKR
modifications: biotinylated (sites not given)
Human 5T4 on cells [1]
  EC50: 23 nM
Human CD137 on cells [2]
  EC50: 0.2 nM
Human 5T4 on cells [3]
  EC50: 12 nM
[4]
  EC50: 0.2 nM
Human CD137 on cells [5]
  EC50: 0.17 nM
Human 5T4 on cells [6]
  EC50: 12 nM
Human 5T4 on cells [7]
  EC50: 11 nM
